The values below come from publication PMC4388676 (PLoS ONE, 2015).

What is called Kd is the free concentration of one partner at which half of the binding sites on the other are occupied at equilibrium, for simple one-to-one binding.

“Also recorded” adds a separate entry of the source. Bridge positions count the residues as written; N and C are the ends. Square brackets hold non-standard residues; d marks the D form. Ends that are not written are not given here. Peptide text beside a SMILES is read from it. * marks the point of attachment. FITC = O=C1OC2(c3ccc(O)cc3Oc3cc(O)ccc32)c2ccc(NC(=S)*)cc21; S5 = C=CCCC[C@](C)(N)C(=O)O

Data set [1] can be described thus: Serum stability followed by LC-MS. It is filed as in vitro ADME. Particulars: 25% human serum, 37°C, peptide 0.3 μM, time points 0, 60, 120, 180, 360 and 900 min, TFA precipitation, LC-MS read-out, triplicate. On the procedure:
Human serum (Sigma Aldrich-Italy) was centrifuged at 13000 rpm for 10 min to remove lipids;the supernatant was collected and incubated at 37°C for at least 15 min. The assay started upon the addition of the peptides to the 25% serum for a final peptide concentration of 0.3 μM.
200 μL aliquots of the samples were taken after the following time points: 0, 60, 120, 180, 360 and 900 min. The aliquots were mixed with 100 μL of 15% TFA and incubated at 4°C for at least 15 min to induce the precipitation of the serum proteins. The supernatants were collected for each sample after centrifugation at 13000 rpm for 10 min and stored at -20°C.
The serum stability of peptides was followed by LC-MS analysis. using a Phenomenex Jupiter C4 (150 × 2 mm; 5 μm; 300 Å) and a method consisting of an isocratic step with H2O (0.1% TFA)/CH3CN (0.1% TFA) (70:30) for 10 min and a linear gradient of H2O (0.1% TFA)/CH3CN (0.1% TFA) from 30 to 80% of CH3CN (0.1% TFA) in 20 min at flow rate of 200 μL/min.
The assays were performed in triplicate.

Data set [2] deals with T1, KCTD11^BTB (Homo sapiens, UniProt Q693B1).
T1 construct: tetrameric BTB domain of KCTD11^BTB (residues 15–116) was generated; thioredoxin A (TrxA); made in house
T1 sequence (Q693B1 15-116 isoform Q693B1-2): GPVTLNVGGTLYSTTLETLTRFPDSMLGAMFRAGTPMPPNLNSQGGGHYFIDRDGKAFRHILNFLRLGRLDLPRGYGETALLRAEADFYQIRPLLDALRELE
The data set is described as follows: ELISA binding of biotinylated peptides to His-TrxA-KCTD11^BTB. The following applies: 0.8 μM biotinylated peptide on streptavidin-coated wells; His-TrxA-KCTD11^BTB 0.4-15.6 μM in PBS; anti-His/HRP read at 490 nm; mean of triplicate experiments. The protocol:
For ELISA assays, 5 μg/mL streptavidin in phosphate/citrate buffer pH 5.0 was incubated overnight at 37°C for coating. Firstly, wells were coated with 0.8 μM biotinylated Cul3^49-68 peptides in phosphate buffered saline (PBS) 1X for 1 h at room temperature. Binding step was performed with increasing concentrations (0.4, 0.75, 1.5, 3.8, 7.6 and 15.6 μM) of His-TrxA- KCTD11^BTB in PBS 1X. His-TrxA was used as negative control in the same concentrations. As blocking solution 3% gelatine, 0.05% Tween-20 in PBS 1X was used for 1 h at 37°C. Washes were executed with PBS 1X. To reveal the occurred interaction mouse anti-His monoclonal antibody was incubated in 1:1000 dilution at room temperature for 2 h; then, horseradish peroxidase-conjugated anti-mouse antibody (Pierce) was diluted 1:10000 in 1% gelatin, PBS 1X and incubated at 20°C for 1 h. The colorimetric reaction has been carried out with SIGMAFAST OPD reagent (Sigma Aldrich), according to the manufacturer’s instructions. Finally, a Model 680 Microplate Reader (Bio-Rad, Hercules, CA-USA) has been used for readings at 490 nm; data were processed by a Microplate Manager 5.2 program. The reported data are mean values of triplicate experiments.
(In general: An ELISA detects its analyte on a solid surface through an enzyme-linked reagent.)

Data set [3] in a line: Human serum (Sigma Aldrich-Italy), 25% serum. The following applies: 37°C, up to 900 min.
Data set [4] has as its target T2, KCTD5^BTB (UniProt Q9NXV2 44-145).
T2 construct: KCTD5, folded BTB domain, residues 44-145; also called BTB of the pentameric KCTD5; pentameric KCTD5^BTB; source: recombinant from the pET28/KCTD5^BTB plasmid, expressed and purified as elsewhere reported [33, 34]
Briefly: fluorescence polarisation; 1 uM FITC-Cul3^49-68LA, KCTD5^BTB over 0.1 nM to 5 uM; triplicates. The following applies: both partners purified.

Data set [5] deals with T3, His-TrxA-KCTD11^BTB (UniProt Q693B1-2 15-116).
T3 construct: KCTD11, folded BTB region of the long form (isoform 2, UniProt Q693B1-2); residues 15-116 are stated for KCTD11^BTB in the modelling paragraph; numbers count on: the long form (isoform 2); The tags are named and used for detection in the ELISA; also called recombinant KCTD11^BTB; BTB of the tetrameric KCTD11; source: recombinant fusion protein with thioredoxin A, expressed and purified as …
T3 sequence (looked up): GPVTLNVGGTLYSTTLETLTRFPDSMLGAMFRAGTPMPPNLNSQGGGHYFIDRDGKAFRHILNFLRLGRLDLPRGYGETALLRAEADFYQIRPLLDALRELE
The data set is described as follows: fluorescence polarisation; 2 uM FITC-peptide, KCTD11^BTB added at increasing concentration (0.1-15 uM in the methods; 0.1 nM to 20 uM in the legend); KCTD11^BTB concentration as monomer; triplicates. The following applies: both partners purified. In general terms: In fluorescence polarisation assays a small probe gives low polarisation when free and higher when bound to something large.

T2 sequence (Q9NXV2 44-145): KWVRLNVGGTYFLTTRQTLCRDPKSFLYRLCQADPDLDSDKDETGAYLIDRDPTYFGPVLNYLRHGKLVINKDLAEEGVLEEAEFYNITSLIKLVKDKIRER

Turning to `CSCC[C@H](NC(=O)[C@@H](NC(=O)[C@H](Cc1ccc(O)cc1)NC(=O)[C@H](C)NC(=O)[C@H](CC(N)=O)NC(=O)[C@H](CCCNC(=N)N)NC(=O)[C@H](Cc1ccc(O)cc1)NC(=O)[C@]1(C)CCCC=CCCC[C@](C)(NC(=O)[C@H](CC(C)C)NC(=O)CNC(=O)[C@H](CO)NC(=O)[C@H](CC(N)=O)NC(C)=O)C(=O)N[C@@H](Cc2ccccc2)C(=O)N[C@@H](CCC(=O)O)C(=O)N[C@@H](CCC(=O)O)C(=O)N1)[C@@H](C)O)C(=O)N[C@H](C(=O)N[C@@H](CC(C)C)C(=O)N[C@@H](Cc1c[nH]cn1)C(=O)N[C@@H](CCCCN)C(N)=O)C(C)C` [Cul3^49-68SL] (Ac-NSGL[S5]FEE[S5]YRNAYTMVLHK-NH2; staple 5-9), the “Estimate t1/2 in serum” value in data set [1] was roughly 7 h. Consider “Cul3^49-68AA: non-stapled variant of Cul3^49-68 in which Tyr58 and Tyr62 were replaced with Ala residues (NSGLSFEELARNAATMVLHK-NH2; not fully specified (N-terminus))”, for which, in data set [2], the “Binding to recombinant KCTD11^BTB, qualitatively checked by ELISA” value is given as “No relevant binding; also recorded: completely unable to bind KCTD11^BTB”. As to Ac-NSGLSFEELYRNAYTMVLHK-NH2, in data set [3], the cleaved bond entry was “Tyr58-Arg59, major” and the fragment found result is reported as “NAYTMVLHK-NH 2; also recorded: Ac-NSGLSFEELYR”. On to “Ac-NSGLSFEELYRNAYTMVLHK-NH2 [Cul3^49-68]”, for which the half-life at 0.3 μM in data set [1] (read-out: Estimate t1/2 in serum (converted)) is 7 h.

B1: FITC-Cul3^49-68LA (peptide)
chain: {FITC}-NSGLSFEE[S5]YRN[S5]YTMVLHK-NH2
modifications: staple 9-13
For B1, the Kd in data set [4] worked out at 97 nM; in data set [5] it was 305 nM.

B2: FITC-Cul3^49-68 (peptide)
peptide: {FITC}-NSGLSFEELYRNAYTMVLHK-NH2
notes: Cullin 3 (Cul3), first part of the peptide 49-68; Cullin 3 (Cul3), second part of the peptide 49-68; also called wild-type peptide; source: synthetic peptide (solid phase, Fmoc), RP-HPLC purified
As to B2, the Kd in data set [5] was 497 nM. This lies in the sub-micromolar range.

B3: FITC-Cul3^49-68EN (peptide)
chain: {FITC}-NSGLSFE[S5]LYR[S5]AYTMVLHK-NH2
modifications: staple 8-12
With B3, the Kd in data set [5] amounted to 620 nM.
